Experiment [1] addresses D3H44 light chain F116A_Q124R_L135V. Kind of experiment: LCCA, SPR tag readout, L1:L2 DNA 1:9 normalized to 1:1; competitor m24.
Experiment [2] has as its target D3H44 light chain F116A_Q124R_L135V_T178R. The description is as above.
Experiment [3] deals with D3H44 light chain Q124E_L135W_Q160E_T180E. Kind of experiment: LCCA, SPR tag readout, L1:L2 DNA 1:3 normalized to 1:1; competitor m25.
Experiment [4] deals with D3H44 light chain F116A_Q124R_L135V. Kind of experiment: LCCA, SPR tag readout, L1:L2 DNA 1:3 normalized to 1:1; competitor m24.
In experiment [5] the target is D3H44 light chain F116A_Q124R_L135V_T178R. The description is as above.
For experiment [6], the target named is D3H44 light chain Q124E_L135W_Q160E_T180E. The experiment can be described thus: LCCA, SPR tag readout, L1:L2 DNA 1:9 normalized to 1:1; competitor m25.
Experiment [7] has the same target. Kind of experiment: LCCA, SPR tag readout, L1:L2 DNA 1:3 normalized to 1:1; competitor m23.
Experiment [8] shares this target. The experiment can be described thus: LCCA, SPR tag readout, L1:L2 DNA 1:9 normalized to 1:1; competitor m23.
For experiment [9], the target named is D3H44 light chain T178R (Kabat) with N-terminal HA or FLAG tag. The experiment can be described thus: LCCA, SPR read-out of light-chain tags; light-chain DNA 1:3 normalized to 1:1; competing light chain m17.
Experiment [10] has as its target D3H44 light chain Q124E_Q160E_T180E (Kabat) with N-terminal HA or FLAG tag. Kind of experiment: LCCA, SPR read-out of light-chain tags; light-chain DNA 1:3 normalized to 1:1; competing light chain m18.
Experiment [11] addresses D3H44 light chain Q124R_Q160K_T178R (Kabat) with N-terminal HA or FLAG tag. The experiment can be described thus: LCCA, SPR read-out of light-chain tags; light-chain DNA 1:3 normalized to 1:1; competing light chain m17.
Experiment [12] has as its target D3H44 light chain Q124E_Q160E_T180E (Kabat) with N-terminal HA or FLAG tag. The experiment can be described thus: LCCA, SPR read-out of light-chain tags; light-chain DNA 1:3 normalized to 1:1; competing light chain m20.
Experiment [13] has as its target tissue factor (TF) antigen (UniProt P13726). Kind of experiment: SPR (ProteOn XPR36), Fab captured on anti-penta-His surface, TF as analyte, 1:1 fit.
For experiment [14] the target is unchanged. Kind of experiment: SPR (ProteOn XPR36), Fab captured on anti-penta-His surface, TF as analyte; reference wild-type D3H44 Fab.
Experiment [15] has the same target. Kind of experiment: SPR (ProteOn XPR36), His-tagged Fab captured on anti-penta His, TF as analyte; against wild-type D3H44 Fab; batch C (+).
Experiment [16] has the same target. The experiment can be described thus: SPR (ProteOn XPR36), His-tagged Fab captured on anti-penta His, TF as analyte, 1:1 fit; batch C (+).
The target is the same in experiment [17]. Kind of experiment: SPR as for KD; reference: wild-type D3H44 Fab.
Experiment [18] has the same target. Kind of experiment: SPR, ProteOn XPR36; His-tagged Fab captured on anti-penta-His, TF injected; 1:1 fit. (In general: In SPR one partner is held on a chip, and binding of the other changes the refractive index at the surface.)
Experiment [19] shares this target. The experiment can be described thus: SPR, Fab captured on anti-penta-His surface, TF as analyte, 1:1 fit; against wild-type D3H44 Fab.
For experiment [20] the target is unchanged. The experiment can be described thus: SPR, Fab captured on anti-penta-His surface, TF as analyte, 1:1 fit.
Experiment [21] has the same target. Kind of experiment: SPR (ProteOn XPR36): His-tagged Fab captured on anti-penta-His surface, TF as analyte, 1:1 fit; batch C (+).

D3H44 Fab heavy chain A139G_Q179K_V190A: the H1L1:H1L2 normalized median ratio in experiment [1] worked out at 9%; in [2], 14%; in [3], 85%; in [4], 15%; in [5], 13%; in experiment [6] it was 91%. For the same substance, the H1L1:H1L2 normalized median ratio in experiment [7] amounted to 87%; in experiment [8], 86%. The H1L1:H1L2 normalized median scalar value ln(r1/f1) in experiment [3] amounted to 1.71; in experiment [6], 2.31; in experiment [7], 1.88; in experiment [8] it was 1.85.

As to “D3H44 Fab heavy chain L143D_K145T_Q179E (Kabat) with C-terminal ABD2-His6 tag”, in experiment [9], the H1L1:H1L2 normalized median ratio stood at 89% and the H1L1:H1L2 normalized median scalar value ln(r1/f1) was 2.1. Moreover, in [10], the H1L1:H1L2 normalized median ratio was found to be 11%.

“D3H44 Fab heavy chain Q179K (Kabat) with C-terminal ABD2-His6 tag”: the H2L2:H2L1 normalized median ratio worked out at 22% in [9], 13% in [11], 87% in experiment [12] and 78% in experiment [10].

As a reminder, the Kd is a measure of binding affinity in units of concentration. With “D3H44 Fab heterodimer H1 L45P_L143E_K145T_H172R / L1 P44F_Q124R_Q160K_T178R”, the dissociation constant Kd in [13] amounted to 0.29 nM. The same substance displayed a Change in median values of KD of h1l1 Fab heterodimer compared to wild type (-(log(KD design)-log(KD wt))) in experiment [14] of -0.27.

Substance “D3H44 Fab heterodimer H1 L124A / L1 V133W” returned an equilibrium dissociation constant (Kd) in experiment [13] of 0.13 nM. For the same substance, in experiment [14], the Change in median values of KD of h1l1 Fab heterodimer compared to wild type (-(log(KD design)-log(KD wt))) was 0.07.

Consider “D3H44 Fab heterodimer H1 L124A_S186K / L1 Q124E_V133W_T180E”, for which the dissociation constant (Kd) in experiment [13] came to 0.15 nM. In [14], this substance registered a Change in median values of KD of h1l1 Fab heterodimer compared to wild type (-(log(KD design)-log(KD wt))) of 0.02.

Consider “D3H44 Fab heterodimer H1 L124R_A125R_H172T / L1 V133G_N137K_S174R_S176D”, for which the Kd in [13] came to 0.23 nM. The substance also came in with a Change in median values of KD of h1l1 Fab heterodimer compared to wild type (-(log(KD design)-log(KD wt))) in [14] of -0.16.

In turn, “D3H44 Fab heterodimer H1 L124R_H172T / L1 V133G_N137K_S174R_S176D” returned a Kd in [13] of 0.23 nM. This substance also gave a Change in median values of KD of h1l1 Fab heterodimer compared to wild type (-(log(KD design)-log(KD wt))) in [14] of -0.16.

The substance “D3H44 Fab heterodimer H1 L124W_L143E_K145T_Q179E / L1 Q124R_V133A_S176T_T178R” had a Kd in experiment [13] of 0.21 nM. The Change in median values of KD of h1l1 Fab heterodimer compared to wild type (-(log(KD design)-log(KD wt))) in experiment [14] was -0.13.

In the case of “D3H44 Fab heterodimer, H1 L143E_K145T_P175C_Q179E / L1 Q124R_S162C_T178R (H1L1 Fab of LCCA Set # 9613)”, the Change in median values of KD of h1|1 Fab heterodimer compared to wild type (-(log(KD design)-log(KD wt))) in experiment [15] was 0.12. Further, the Kd in experiment [16] turned out to be 0.12 nM.

In turn, “D3H44 Fab heterodimer, H1 Q39E_L143E_K145T / L1 Q38R_Q124R_Q160K_T178R (H1L1 Fab of LCCA Set # 9817)” displayed a Change in median values of KD of h1|1 Fab heterodimer compared to wild type (-(log(KD design)-log(KD wt))) in experiment [15] of -0.05. In experiment [16], the Kd turned out to be 0.18 nM.

In turn, “D3H44 Fab heterodimer, H1 Q39R_D146G_Q179K / L1 Q38E_Q124E_Q160E_T180E (H1L1 Fab of LCCA Set # 9822)” came in with a Change in median values of KD of h1|1 Fab heterodimer compared to wild type (-(log(KD design)-log(KD wt))) in [15] of 0.17. Moreover, the Kd in experiment [16] turned out to be 0.11 nM.

In turn, “D3H44 Fab heterodimer, H1 Q39R_S186R / L1 Q38E_Q124E_Q160E_T180E (H1L1 Fab of LCCA Set # 9828)” had a Change in median values of KD of h1|1 Fab heterodimer compared to wild type (-(log(KD design)-log(KD wt))) in experiment [15] of 0.07. Besides, the equilibrium dissociation constant (Kd) in [16] is 0.14 nM.

In experiment [15], “D3H44 Fab heterodimer, H1 S186R / L1 Q38E_Q124E_Q160E_T180E (H1L1 Fab of LCCA Set # 9905)” showed a Change in median values of KD of h1|1 Fab heterodimer compared to wild type (-(log(KD design)-log(KD wt))) of 0.2. In experiment [16], this substance displayed a Kd of 0.1 nM.

Take “D3H44 Fab heterodimer, H1L1 of LCCA Set # 9568 (H1 L124W_L143F; L1 V133A_S176T_T178L)”: the change in median KD compared to wild type, -(log(KD design)-log(KD wt)) in experiment [17] is -0.28. Besides, in experiment [18], the Kd was determined as 0.3 nM.

With “D3H44 Fab heterodimer, H1L1 of LCCA Sets # 9057, 9056 and 9055 (H1 A139G_V190A; L1 L135W_S176L)”, in experiment [17], the change in median KD compared to wild type, -(log(KD design)-log(KD wt)) is -0.02. For the same substance, the Kd in experiment [18] came to 0.16 nM.

In [17], “D3H44 Fab heterodimer, H1L1 of LCCA Sets # 9567 and 9566 (H1 L124W_L143F; L1 V133A)” showed a change in median KD compared to wild type, -(log(KD design)-log(KD wt)) of -0.21. In experiment [18], this substance returned a Kd of 0.25 nM.

In the case of “D3H44 Fab heterodimer, H1L1 of LCCA Sets # 9692, 9696, 9688, 9702 and 9700 (H1 L143E_K145T_Q179E_S188L; L1 Q124R_T178R)”, in experiment [17], the change in median KD compared to wild type, -(log(KD design)-log(KD wt)) was -0.34. The substance further displayed a Kd in [18] of 0.34 nM.

“D3H44 H1L1 Fab heterodimer of LCCA Set # 9054 (H1 A139G_Q179K_V190A; L1 Q124E_L135W_Q160E_T180E)”: in experiment [19], the change in median KD compared to wild type, -(log(KD design)-log(KD wt)) stood at 0.05. In experiment [20], the dissociation constant (Kd) was 0.14 nM.

“D3H44 H1L1 Fab heterodimer of LCCA Set # 9098 (H1 L124A_Q179K; L1 Q124E_V133W_S176T_T178E_T180E)” came in with a change in median KD compared to wild type, -(log(KD design)-log(KD wt)) in experiment [19] of -0.03. Moreover, the equilibrium dissociation constant (Kd) in experiment [20] is 0.17 nM.

Turning to “D3H44 H1L1 Fab heterodimer of LCCA Set # 9111 (H1 L124E_A125S_H172R_K228D; L1 S121K_V133G_S176R)”, in experiment [19], the change in median KD compared to wild type, -(log(KD design)-log(KD wt)) was determined as 0.09. Moreover, in experiment [20], the Kd is 0.13 nM.

For the substance “D3H44 H1L1 Fab heterodimer of LCCA Set # 9559 (H1 L124W_L143E_K145T_Q179E; L1 Q124K_V133A_S176T_T178R)”, the change in median KD compared to wild type, -(log(KD design)-log(KD wt)) in experiment [19] is -0.24. In experiment [20], this substance registered a Kd of 0.27 nM.

For “D3H44 H1L1 Fab heterodimer of LCCA Set # 9740 (H1 L143R; L1 Q124E_V133E)”, the change in median KD compared to wild type, -(log(KD design)-log(KD wt)) in [19] is -0.09. The dissociation constant (Kd) in experiment [20] was determined as 0.2 nM.

Regarding “D3H44 H1L1 Fab heterodimer of LCCA Set # 9742 (H1 L143R; L1 Q124E_V133E_Q160M)”, the change in median KD compared to wild type, -(log(KD design)-log(KD wt)) in experiment [19] is -0.21. In experiment [20], the equilibrium dissociation constant (Kd) was 0.25 nM.

In experiment [19], “D3H44 H1L1 Fab heterodimer of LCCA Set # 10549 (H1 L45P_K145T_Q179E; L1 P44F_S131K)” gave a change in median KD compared to wild type, -(log(KD design)-log(KD wt)) of -0.35. Also, the equilibrium dissociation constant (Kd) in experiment [20] came to 0.35 nM.

In [21], “D3H44 H1L1 Fab heterodimer of LCCA set 9632 (H1 L143E_K145T_Q179D; L1 Q124R_T178R)” gave a Change in median values of KD of h1|1 Fab heterodimer compared to wild type (-(log(KD design)-log(KD wt))) of 0.04 log units and an equilibrium dissociation constant (Kd) of 0.14 nM.

In [21], “D3H44 H1L1 Fab heterodimer of LCCA set 9741 (H1 L143R; L1 Q124E_V133E_Q160F)” displayed a Change in median values of KD of h1|1 Fab heterodimer compared to wild type (-(log(KD design)-log(KD wt))) of 0.34 log units and a Kd of 0.07 nM.

In [21], “D3H44 H1L1 Fab heterodimer of LCCA sets 9911, 9909 and 9907 (H1 S188L; L1 WT)” gave a Change in median values of KD of h1|1 Fab heterodimer compared to wild type (-(log(KD design)-log(KD wt))) of 0.27 log units and a dissociation constant (Kd) of 0.09 nM.

(Values after patent US11306156.)
